# Measurements from the RNAGym collection of RNA variant scans (doi:10.1073/pnas.2313332121).
# Fewer inactive variants are shown than the library holds.
# B1: TPR 5TU (parent)
# chain: GGAUCUUCUCGAUCUAACAAAAAAGACAAAUCUGCCACAAAGCUUGAGAGCAUCUUCGGAUGCAGAGGCGGCAGCCUUCGGUGGCGCGAUAGCGCCAACGUUCUCAACUAUGACACGCAAAACGCGUGCUCCGUUGAAUGGAGUUUAUCAUG
# Variants of: B1
# Test: polymerase ribozyme fitness, log enrichment relative to wild type (log ratio); higher = more active; in vitro selection for triplet polymerase activity
# How it was run: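 To select mutant libraries of each subunit of a heterodimeric triplet polymerase ribozyme, built by PCR and transcribed, each was annealed with a biotinylated primer, partner subunit and triplets, then incubated frozen at −7 °C. Extended constructs were gel-excised, captured on streptavidin beads and amplified by RT-PCR, in one round carried out in triplicate. Illumina sequencing of input and output libraries kept genotypes with ≥10 input reads and ≥1 read per output. Fitness is the base-2 logarithm of genotype enrichment relative to wild-type enrichment, from inverse-variance-weighted replicate averages.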
row,Variant,polymerase ribozyme fitness (log ratio)
1,GGAUCUUCUCGAUUUAACAAAAAAGACAAAUCUGCCACAAAGCUUGAGACCAUCUUCGGAUGCAGAGGCGGCAGCCUUCGGUGGCGCGUUAGGGCCAACGUUCUCAACUAUGACACGCAAAACGCGUGCUCCGUUGAAUGGAUUUUAUCAUG,≤ -4.2
2,GGAUCUUCUCGAUUUAACAAAAAACCCAAAUCUGCCACAAAACUUGAGAGCAUCUUCGGUUGCAGAGGCGGCAGCCUUCGGUGACGCGAUAGCGCCAACGUUCUCAAUUAUGACACGCAAAACGCGUGCUCCGUUGAAUGGAGUUUAUCAUA,≤ -4.2
3,GGAUCUUCUCGAUUUAACAAAAAAGACAAAUCUGCCACAAAGCUUGAGAGCAUCUUCGGUUGCAGAGGCGGCAGCCUUCGGUGGCGCGAUAGCGCGAACGUUCUCAACUAUGACACGCAAAACGCGUGCUCCGUUGAAUGGAGUUUAUCAUG,≤ -4.2
4,GGAUCUUCUCGAUUUAACAAAAAAGACAAAUCUGCCACAAAGCUUGAGAGCAUCUUCGGAUGCAGCGGCGGCAGCCUGCGGUGGCGCGAUAGCGGCAACGUUCUCAAUUAUGACACGCAAAACGCGUGCUCCGUUGAAUGGAGUUUAUCAUG,≤ -4.2
5,GGAUCUUCUCGAUUUAACAAAAAAGACAAAUCUUCCACAAAGCUUGAGCGCAUCUUCGCAUGCAGAGGAGGCAGCCUUCGGUGGCGCGAUCGCGCCAACGUUCUCAACUAUGACACGCAAAACGCGUGCUCCGUUGAAAGGAGUUUCUCAUG,≤ -4.2
6,GGAUCUUCUCGAUUUAACAAAAAAGACAAAUCUGCCACAAAGCUUGAGAGCAUCUUCGGAUGCGGAGGCGGCAGCCUUCGGUGGCGCGAUAGCGCCAACGUUCUCAACUAUGACACGCAAAACGCGUGCUCCGUUGAAUGGAGUUUAUCAUG,-4.17
7,GGAUCUUCUCGAUUUAACAAAAAAGACAAAUCUGCCACAAAGCUUGAGAGCAUCUUCGGAUGCAGAGGCGGCAGCCUUCGGUGGCGCGAUAGCGCCAACGUUCUCAUCUAUGACACAAAAAACGCGUGCUCCGUUGAAUGGGGUUUAUCAUG,≤ -4.2
8,GGAUCUUCUCGAUUUAACAAAAAAGACAAAUCUGCCACAAUGCUUGAGAGCAUCUACGGAUGCAGAGGCGGCAGCCUUCGGUGGCGCGAUAGAGCCAACGUUCUCAACUAUGACACGCAAAAAGCGUGCUCCGUUGAAUGGAGUUUAUCAUG,≤ -4.2
9,GGAUCUUCUCGAUUUAACAAAAAAGACAAAUCUGCCACAAAGCUUGAGAGCAUUUUCGGAUGCAGAGGCGGCAGCCUUCGGUGGCGCGAUAGCGCCAACGUUCUCAACUAUGACACGCAAAACGCGUGCUCCGUUGAAUGGAGUUUAUCAUG,-1.87
10,GGAUCUUCUCGAUUUAACAAAAAAGACAAAUCUGCCACAAAACUUGAGAGCAUCUUCGGAUGCAGAGGCGGCAGCCUUCGGUGGCGUGAUAGCGCCAACGUUCUCAACUAUGACACGCAAAACGCGUGCUCCGUUAAAUGGAGUUUAUCAUG,≤ -4.2
11,GGAUCUUCUCGAUUUAACAAAACAGACAAAUCUGCCACAAAGCUUGAGAGCAUCUUCGGAUGCAGAGGCGGCAGCCUUCGGUGGCGCGAUAGCGCCAACGCACUCAACUAUGACACGCAAAACGCGUGCUCCGUUGAAUGGAGUUUAUCAGG,≤ -4.2
12,GGAUCUUCUCGAUUUAACAAAAAAGACAAAUCUGCCACAAAGCUUGAGAGCAUCUUCGGAUGCAGAGGCGGCAGCCUUCGGUGGCGUGAUAGCGCCAAUGUUCUCAACUAUGACACGCAAAACAUGUGCUCCGUUGAAUGGAGUUUAUCAUG,-2.54
13,GGAUCUUCUCGAUUUAACAAAAAAGACAAAUCUGCCACAAAGCUUGAGAACAUCUUCCGAUGCAGAGGCGGCAGCCUUCGGUGGCGCGAUAGCGCCAACGUUCUCAACUAUGACACGCAACACGCGUGCUCCGUUGAAUGGAGUUUAUCAUG,-3.27
14,GGAUCUUCUCGAUUUAACAAAAAAGACAAAUCUGUCACAAAGCUUGAGAGCAUCUUCGGAUGCAGAGGCGGCAGCCUUCGGUGUCGCGAUAGCGCCAACGUUCUCAACUAUGACACGCAAAACGCGUGCUUCGUUGAAUGGAGUUUAUCAUG,-3.79
15,GGAUCUUCUCGAUUUAACAAAAUAGACAAAACUGCCACAAAGCUUGCGAGCAUCUUCGGAUGCAGAGGCGGCAGCCUUCGGUGGCGCGAUACCGCGAACGUUCUCAACUAUGACACGCAAAACGCGUGCUACGUUGAAUGGAGUUUAUCAUG,≤ -4.2
16,GGAUCUUCUCGAUUUAACAAAAAAGACAAAUCUGCCACAAAGCUUGAGACCAUCUUCGGAUGCAGAGGCGGCAGCCUUCGGUGGCGCGAUAGCGCCAUCGUUCUCAAAUAUGACACGCAAAACGCGUGCUCCGUUGAAUGGAGUUUAUCAUG,≤ -4.2
17,GGAUCUUCUCGAUUUAACAAAAAAGACAAAUCUGCCACAAAGCUUGAGAGCAUCUUAGGAUGCAGAGGCGGCAGCCUUCGGUGGCGCGAUAGCGCCAACGUUCUCAACUAUGACACGCAAAACGCGUGCUCCGUUGAAUGGAGUUUAUCAUG,-0.738
18,GGAUCUUCUCGAUUUAACAAAAAAGACAAAUCUGCCACAAUGCUUGAGAGCAUCUUCGGCUGCAGUGGCGGCAGCCUUCAGUGGUGCGAUAGCGCCAACGUUUUCAACUAUGACACGCAAAACGCGUGCUCCGUUGAAUGGAGUUUAUCAUG,≤ -4.2
19,GGAUCUUCUCGAUUUAACAAAAAAGACUAAUCUGCCACAAAGCUUGAGAGCCUCUUCGGAUGCAGAGGCGGCAGCCUUCGGUGGCGCUAUGGCGCUAACGUUCUCAACUAUGACACGCAAAACGCGUGCUCCGGUGAAUUGAGUUUAUCAUG,≤ -4.2
